In assay [1] the target is T1, endogenous PKCalpha from Jurkat T cell lysates (human, UniProt P17252 2-672).
T1 construct: Detected by immunoblot with an anti-PKCalpha antibody (UBI) after the GST pull down; also called PKCα
The experiment in a line: GST pull down from Jurkat T cell lysates, immunoblot. The protocol: (§1) GST pull down assay: 1×10⁷ Jurkat T cells were lysed in 1 ml lysis buffer (25 mM MES pH6.5, 5 mM NaF, 1 mM Na₃VO₄, 2 mM EDTA, 150 mM NaCl, 0.5% TritonX-100, 50 μg/ml aprotinin and leupeptin). Lysates were precleared for 30 min at 4° C. Thereafter incubation with purified recombinant GST-NR2F6 fusion proteins for 3 h at 4° C., 5× washing in lysis buffer, SDS-PAGE under reducing conditions on Bis/Tris-buffered gels (Novex, San Diego, Calif.) was performed. Proteins were transferred onto a polyvinyl-difluoridon (PVDF) membrane (Millipore, Bedford, Mass.) by semi-dry blotting (90 mA, 80 min, 4° C.). […] Peroxidase-conjugated antibodies (Pierce, Rockford, Ill.) served as secondary reagent (1:5,000). For antigen detection enhanced chemiluminescence was used (Super Signal, Pierce, Rockford, Ill.).

Assay [2] addresses T2, endogenous PKCtheta from Jurkat T cell lysates (human, UniProt Q04759 1-706).
T2 construct: Detected by immunoblot with an anti-PKCtheta antibody (Cell Signalling) after the GST pull down
Described as above. The protocol:
as §1

T2 sequence (Q04759 whole entry): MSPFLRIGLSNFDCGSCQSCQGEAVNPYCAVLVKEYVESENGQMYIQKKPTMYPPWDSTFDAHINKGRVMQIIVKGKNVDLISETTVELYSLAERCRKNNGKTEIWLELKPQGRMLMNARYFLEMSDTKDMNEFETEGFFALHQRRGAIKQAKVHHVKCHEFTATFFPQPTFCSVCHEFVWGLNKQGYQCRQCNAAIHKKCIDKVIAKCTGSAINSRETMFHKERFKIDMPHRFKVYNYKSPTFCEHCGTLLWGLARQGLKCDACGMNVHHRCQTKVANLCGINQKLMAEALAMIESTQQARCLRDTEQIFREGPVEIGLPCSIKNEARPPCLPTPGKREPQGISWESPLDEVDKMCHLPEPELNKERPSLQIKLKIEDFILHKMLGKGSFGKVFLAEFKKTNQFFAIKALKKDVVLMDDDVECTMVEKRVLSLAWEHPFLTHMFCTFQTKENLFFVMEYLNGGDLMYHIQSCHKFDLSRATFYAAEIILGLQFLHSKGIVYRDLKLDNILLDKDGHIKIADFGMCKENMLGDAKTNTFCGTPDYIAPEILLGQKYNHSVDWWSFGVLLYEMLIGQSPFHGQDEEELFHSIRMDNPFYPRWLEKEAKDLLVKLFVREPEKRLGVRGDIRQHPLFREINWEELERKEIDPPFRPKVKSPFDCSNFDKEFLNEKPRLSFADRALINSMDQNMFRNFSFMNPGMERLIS

B1: GST-NR2F6 fusion protein, full-length, wild-type (other)
chain: MAMVTGGWGGPGGDTNGVDKAGGYPRAAEDDSASPPGAASDAEPGDEERPGLQVDCVVCGDKSSGKHYGVFTCEGCKSFFKRSIRRNLSYTCRSNRDCQIDQHHRNQCQYCRLKKCFRVGMRKEAVQRGRIPHSLPGAVAASSGSPPGSALAAVASGGDLFPGQPVSELIAQLLRAEPYPAAAGRFGAGGGAAGAVLGIDNVCELAARLLFSTVEWARHAPFFPELPVADQVALLRLSWSELFVLNAAQAALPLHTAPLLAAAGLHAAPMAAERAVAFMDQVRAFQEQVDKLGRLQVDSAEYGCLKAIALFTPDACGLSDPAHVESLQEKAQVALTEYVRAQYPSQPQRFGRLLLRLPALRAVPASLISQLFFMRLVGKTPIETLIRDMLLSGSTFNWPYGSGQ
notes: Purified recombinant fusion protein, used as bait in the GST pull down from Jurkat T cell lysates and as substrate in the in vitro kinase assay; also called recombinant NR2F6; purified recombinant GST-NR2F6; not shown: GST tag; N-terminal position inferred from the name GST-NR2F6
For B1, the binding result in assay [1] and in assay [2] was “binds” in each case.

Source of the values: US20110236427A1 (MEDIZINISCHE UNIVERSITAT INNSBRUCK, published 2011).
